# Reference: patent publication US20230257453A1 (PROVIVA THERAPEUTICS HONG KONG, published 2023)
# Substitutions are numbered along the chain they refer to. Names may count otherwise.
# T1: denatured human collagen type III (human, UniProt P02461 154-1221, limits assumed)
# T1 construct: Bought human collagen III (ab7535, Abcam), denatured at 99 C for 15 minutes and then kept on ice for 5 minutes; also called denatured human collagen III
# T1 sequence: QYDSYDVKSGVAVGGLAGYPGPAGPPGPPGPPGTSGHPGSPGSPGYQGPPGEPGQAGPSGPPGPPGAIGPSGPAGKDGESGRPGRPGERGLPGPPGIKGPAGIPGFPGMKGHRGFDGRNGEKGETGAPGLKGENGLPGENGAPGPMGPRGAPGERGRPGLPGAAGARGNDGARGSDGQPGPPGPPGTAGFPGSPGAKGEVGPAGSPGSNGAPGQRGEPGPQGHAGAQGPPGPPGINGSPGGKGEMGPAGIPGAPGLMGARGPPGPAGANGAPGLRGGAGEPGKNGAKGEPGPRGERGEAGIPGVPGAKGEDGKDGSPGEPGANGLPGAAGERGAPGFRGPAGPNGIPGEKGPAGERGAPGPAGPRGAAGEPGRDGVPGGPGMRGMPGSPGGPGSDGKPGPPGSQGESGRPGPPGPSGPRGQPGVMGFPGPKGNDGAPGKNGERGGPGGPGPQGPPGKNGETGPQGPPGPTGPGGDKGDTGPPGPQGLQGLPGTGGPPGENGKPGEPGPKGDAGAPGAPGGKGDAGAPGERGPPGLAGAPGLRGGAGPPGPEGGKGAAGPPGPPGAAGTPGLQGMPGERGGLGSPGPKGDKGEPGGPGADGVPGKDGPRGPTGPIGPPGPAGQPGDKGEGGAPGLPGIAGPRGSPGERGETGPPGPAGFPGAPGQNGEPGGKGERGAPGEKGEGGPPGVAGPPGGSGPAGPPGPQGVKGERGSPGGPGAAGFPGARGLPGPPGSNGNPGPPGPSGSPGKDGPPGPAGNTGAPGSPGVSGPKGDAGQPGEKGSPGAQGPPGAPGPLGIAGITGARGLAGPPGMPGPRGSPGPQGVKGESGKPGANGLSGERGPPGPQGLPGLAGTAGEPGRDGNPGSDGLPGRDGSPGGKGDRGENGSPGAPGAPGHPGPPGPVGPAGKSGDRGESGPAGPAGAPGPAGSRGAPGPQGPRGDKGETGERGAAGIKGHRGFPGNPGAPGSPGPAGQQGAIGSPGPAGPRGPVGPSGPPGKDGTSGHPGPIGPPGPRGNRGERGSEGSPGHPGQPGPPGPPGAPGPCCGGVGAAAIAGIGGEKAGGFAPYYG
# B1: P27152798 (antibody, human IgG1, kappa, L234A L235A, V domains shown)
# VH: QVTLKESGPALVKPTQTLTLTCTFSGFSLSTPGMGVWWIRQPPGKALEWLADIWWDDNKYTNPSLKSRLTISKDTSKNQVVLTMTNMDPVDTATYYCARRANYGNPYYAQDYWGQGTTVTVSS
# VL: DIVMTQTPLSLPVTPGEPASISCRSSQSIVHSNANTYLEWYLQKPGQSPQLLIYKVSNRFSGVPDRFSGSGSGTDFTLKISRVEAEDVGVYYCFQGSHVPWTFGQGTKVEIKR
# notes: also called VH chain D3 / VL chain B7A
# B2: P27122713 (antibody, human IgG1, kappa, L234A L235A, V domains shown)
# VH: B1 VH with P32S, W37G, T61A
# VL: B1 VL with A34G
# notes: produced by transient transfection in Expi293 cells and purified on MabSelect SuRe; also called VH chain B7 / VL chain B7
# B3: P27152716 (antibody, human IgG1, kappa, L234A L235A, V domains shown)
# VH: B1 VH
# VL: B1 VL with H31S, N33W, A34G
# notes: produced by transient transfection in Expi293 cells and purified on MabSelect SuRe; also called VH chain D3 / VL chain D3
# Target: T1, denatured human collagen type III
# Assay: ELISA, denatured collagen coated on plate, anti-human IgG peroxidase detection
# Procedure: ELISA analysis. The binding activity and specificity of purified antibodies were determined by ELISA. Human collagens I (ab7533, Abcam), III (ab7535, Abcam), IV (ab7536, Abcam), an V (ab7537, Abcam), and mouse collagens I (NBP2-62423, NOVUS) and IV (3410-010-02, R&D) were used in ELISA analysis. “Denatured” collagen samples were prepared by incubation of collagens samples at 99° C. for 15 minutes followed by incubation on ice for 5 minutes Microtiter plates were coated with native or denatured collagen protein overnight at 4° C. The next day, plates were washed with PBS and blocked with 3% non-fat dry milk in PBS or 1% BSA. Serially diluted antibodies were added for binding to the coated antigen. Bound antibodies were detected with peroxidase-conjugated anti-human IgG secondary antibody (Jackson ImmunoResearch).
row,binding result,Binder
1,binds,B1
2,binds,B2
3,binds,B3
